In patent publication US20230303698A1 (HARBOUR BIOMED SHANGHAI, published 2023):

B1: PR003549 (bispecific antibody, human IgG1, kappa, L234A L235A)
light: DIQMTQSPSTLSASVGDRVTVTCRASQSIYIWLAWYQQKPGKAPNLLIYKASSLETGVPSRFSGSGSGTEFTLTISSLQPDDFATYYCQQYYGSSRTFGQGTKVEIKRTVAAPSVFIFPPSDEQLKSGTASVVCLLNNFYPREAKVQWKVDNALQSGNSQESVTEQDSKDSTYSLSSTLTLSKADYEKHKVYACEVTHQGLSSPVTKSFNRGEC
heavy: EVQLVESGGGLVQPGGSLRLSCAASGFTFSSYWMSWVRQAPGKGLEWVANIKQEGSEKYYVDSVKGRFTISRDNAKNSLYLQMNSLRAEDTAVYYCARDRAVAGAFDIWGQGTMVTVSSASTKGPSVFPLAPSSKSTSGGTAALGCLVKDYFPEPVTVSWNSGALTSGVHTFPAVLQSSGLYSLSSVVTVPSSSLGTQTYICNVNHKPSNTKVDKKVEPKSCDKTHTCPPCPAPEAAGGPSVFLFPPKPKDTLMISRTPEVTCVVVDVSHEDPEVKFNWYVDGVEVHNAKTKPREEQYNSTYRVVSVLTVLHQDWLNGKEYKCKVSNKALGAPIEKTISKAKGQPREPQVYTLPPSREEMTKNQVSLTCLVKGFYPSDIAVEWESNGQPENNYKTTPPVLDSDGSFFLYSKLTVDKSRWQQGNVFSCSVMHEALHNHYTQKSLSLSPGEPKSSDKTHTPPPPPRTEVQLLESGGGLVQLGGSLRLSCAASGFTFSRYAMTWVRQAPEKGLEWVSSISGSGDDTYYGDSVKGRFTISRDNSQNTVYLQMNSLRAEDTAVYFCAKEKAGTTGDYYYNVDVWGQGTTVTVSS
notes: Structure 1, IgG-VH tetravalent symmetric; PD-L1 Fab from PR000265, 4-1BB VH from PR001758; linker H1_15-RT; human IgG1 (AAG); also called PD-L1×4-1BB bispecific antibody molecule
B2: PR003551 (bispecific antibody, human IgG1, kappa, L234A L235A)
light: B1 light
heavy: EVQLVESGGGLVQPGGSLRLSCAASGFTFSSYWMSWVRQAPGKGLEWVANIKQEGSEKYYVDSVKGRFTISRDNAKNSLYLQMNSLRAEDTAVYYCARDRAVAGAFDIWGQGTMVTVSSASTKGPSVFPLAPSSKSTSGGTAALGCLVKDYFPEPVTVSWNSGALTSGVHTFPAVLQSSGLYSLSSVVTVPSSSLGTQTYICNVNHKPSNTKVDKKVEPKSCDKTHTCPPCPAPEAAGGPSVFLFPPKPKDTLMISRTPEVTCVVVDVSHEDPEVKFNWYVDGVEVHNAKTKPREEQYNSTYRVVSVLTVLHQDWLNGKEYKCKVSNKALGAPIEKTISKAKGQPREPQVYTLPPSREEMTKNQVSLTCLVKGFYPSDIAVEWESNGQPENNYKTTPPVLDSDGSFFLYSKLTVDKSRWQQGNVFSCSVMHEALHNHYTQKSLSLSPGEPKSSDKTHTPPPPPRTEVQLLESGGGLVQPGGSLRLSCAASGFIFSNFAMTWVRQPPEKGLKWVSSINGSGFNTYYTDSVKGRFTISRDNSRNTLYLQMNRLTAEDTAVYFCAKEGSSETDDHYYNVDVWGQGTTVTVSS
notes: Structure 1, IgG-VH tetravalent symmetric; PD-L1 Fab from PR000265, 4-1BB VH from PR001836; linker H1_15-RT; human IgG (AAG) as printed; also called PD-L1×4-1BB bispecific antibody molecule
B3: PR003555 (bispecific antibody, human IgG1, kappa, L234A L235A)
light: DIQMTQSPSSLSASIGDRVTITCRASQSINSYLNWYQQKPGKAPKLLIYTASSLLSGVPSRFSASGSWTDFSLTISSLQPEDFATYYCQQSFSTPYTFGQGTNLEIKRTVAAPSVFIFPPSDEQLKSGTASVVCLLNNFYPREAKVQWKVDNALQSGNSQESVTEQDSKDSTYSLSSTLTLSKADYEKHKVYACEVTHQGLSSPVTKSFNRGEC
heavy: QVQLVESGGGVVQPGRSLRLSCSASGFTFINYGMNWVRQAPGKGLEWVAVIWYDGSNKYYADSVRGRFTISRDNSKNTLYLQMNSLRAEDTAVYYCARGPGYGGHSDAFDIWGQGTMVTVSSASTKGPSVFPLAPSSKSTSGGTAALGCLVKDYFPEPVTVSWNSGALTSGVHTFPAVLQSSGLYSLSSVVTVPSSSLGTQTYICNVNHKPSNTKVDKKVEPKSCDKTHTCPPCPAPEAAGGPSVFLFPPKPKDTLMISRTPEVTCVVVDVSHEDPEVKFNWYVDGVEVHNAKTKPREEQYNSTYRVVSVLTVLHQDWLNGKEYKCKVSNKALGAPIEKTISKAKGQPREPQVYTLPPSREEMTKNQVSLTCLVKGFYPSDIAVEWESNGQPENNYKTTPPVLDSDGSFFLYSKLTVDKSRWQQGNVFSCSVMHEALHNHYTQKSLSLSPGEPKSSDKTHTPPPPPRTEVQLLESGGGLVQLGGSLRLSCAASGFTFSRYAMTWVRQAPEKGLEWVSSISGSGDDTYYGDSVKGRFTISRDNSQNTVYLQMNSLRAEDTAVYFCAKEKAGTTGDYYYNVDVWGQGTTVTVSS
notes: Structure 1, IgG-VH; PSMA Fab from PR001331, 4-1BB VH from PR001758; linker H1_15-RT; human IgG1 (AAG); also called PSMA×4-1BB bispecific antibody molecule
B4: PR003556 (bispecific antibody, human IgG1, kappa, L234A L235A)
light: B3 light
heavy: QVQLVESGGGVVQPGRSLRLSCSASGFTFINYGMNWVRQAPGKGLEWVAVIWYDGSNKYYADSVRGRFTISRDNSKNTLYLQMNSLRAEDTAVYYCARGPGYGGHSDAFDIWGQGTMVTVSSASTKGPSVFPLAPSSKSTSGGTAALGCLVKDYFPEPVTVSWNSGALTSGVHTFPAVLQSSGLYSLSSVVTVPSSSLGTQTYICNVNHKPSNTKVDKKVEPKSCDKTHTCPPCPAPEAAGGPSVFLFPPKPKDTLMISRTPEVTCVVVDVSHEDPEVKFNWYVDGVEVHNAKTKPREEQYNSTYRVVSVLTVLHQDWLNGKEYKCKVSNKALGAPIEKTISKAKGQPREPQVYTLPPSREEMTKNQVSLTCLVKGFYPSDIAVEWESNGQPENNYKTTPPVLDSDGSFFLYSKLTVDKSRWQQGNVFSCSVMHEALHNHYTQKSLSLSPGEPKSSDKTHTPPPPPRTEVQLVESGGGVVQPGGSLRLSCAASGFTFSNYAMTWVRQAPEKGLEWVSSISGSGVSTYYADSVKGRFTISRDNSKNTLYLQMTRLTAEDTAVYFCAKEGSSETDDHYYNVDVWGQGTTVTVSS
notes: Structure 1, IgG-VH; PSMA Fab from PR001331, 4-1BB VH from PR001760; linker H1_15-RT; human IgG1 (AAG); also called PSMA×4-1BB bispecific antibody molecule
B5: PR003557 (bispecific antibody, human IgG1, kappa, L234A L235A)
light: B3 light
heavy: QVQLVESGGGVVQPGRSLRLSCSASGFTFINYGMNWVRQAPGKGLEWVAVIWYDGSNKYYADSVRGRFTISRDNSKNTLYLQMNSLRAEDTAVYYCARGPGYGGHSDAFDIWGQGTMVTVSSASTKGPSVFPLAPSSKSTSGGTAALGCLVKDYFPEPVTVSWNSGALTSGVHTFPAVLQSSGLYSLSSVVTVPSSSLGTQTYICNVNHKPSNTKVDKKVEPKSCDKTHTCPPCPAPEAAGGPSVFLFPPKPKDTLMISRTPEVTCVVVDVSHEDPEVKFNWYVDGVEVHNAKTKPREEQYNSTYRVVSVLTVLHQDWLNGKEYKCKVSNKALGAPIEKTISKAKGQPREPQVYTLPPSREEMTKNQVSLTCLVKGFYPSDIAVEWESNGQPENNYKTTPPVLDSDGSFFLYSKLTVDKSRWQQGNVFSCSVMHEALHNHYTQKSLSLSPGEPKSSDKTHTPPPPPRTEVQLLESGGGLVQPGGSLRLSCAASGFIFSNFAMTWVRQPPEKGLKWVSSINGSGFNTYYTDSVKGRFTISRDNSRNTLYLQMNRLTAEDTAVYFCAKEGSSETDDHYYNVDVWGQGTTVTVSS
notes: Structure 1, IgG-VH; PSMA Fab from PR001331, 4-1BB VH from PR001836; linker H1_15-RT; human IgG (AAG) as printed; also called PSMA×4-1BB bispecific antibody molecule
B6: PR001331, anti-PSMA monoclonal antibody 2E8A1B1 hIgG1 (antibody, V domains shown)
VH: QVQLVESGGGVVQPGRSLRLSCSASGFTFINYGMNWVRQAPGKGLEWVAVIWYDGSNKYYADSVRGRFTISRDNSKNTLYLQMNSLRAEDTAVYYCARGPGYGGHSDAFDIWGQGTMVTVSS
VL: DIQMTQSPSSLSASIGDRVTITCRASQSINSYLNWYQQKPGKAPKLLIYTASSLLSGVPSRFSASGSWTDFSLTISSLQPEDFATYYCQQSFSTPYTFGQGTNLEIKR
notes: Parent monoclonal antibody of the PSMA end; hIgG1

target: T1, human 4-1BB (human, UniProt Q07011 24-255); assay: flow cytometry, CHO-K1/hu 4-1BB cells
T1 construct: whole, on cells; Expressed on CHO-K1/hu 4-1BB cells (GenScript, M00538); also called CD137; TNFRSF9
T1 sequence (Q07011 24-255): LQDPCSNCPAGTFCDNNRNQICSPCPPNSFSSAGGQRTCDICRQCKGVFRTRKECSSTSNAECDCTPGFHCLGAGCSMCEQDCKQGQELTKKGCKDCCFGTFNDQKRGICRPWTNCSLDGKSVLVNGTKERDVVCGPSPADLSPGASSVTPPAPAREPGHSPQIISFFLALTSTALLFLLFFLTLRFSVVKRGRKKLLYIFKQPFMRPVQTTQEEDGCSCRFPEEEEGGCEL
Description: The binding ability of the binding protein to a CHO-K1 cell line CHO-K1/hu 4-1BB (GenScript, M00538) highly expressing human 4-1BB and a CHO-K1 cell line CHO-K1/cyno 4-1BB (GenScript, M00569) highly expressing cynomolgus monkey 4-1BB were determined by flow cytometry FACS. Specifically, the cells were digested and resuspended in a complete medium, and the cell density was adjusted to 2×10⁶ cells/mL. […] The cells were incubated at 4° C. for 1 h away from light. Then, the cells in each well were rinsed twice with 100 μL of pre-cooled FACS buffer (PBS buffer containing 0.5% BSA) and centrifuged at 500 g at 4° C. for 5 min, and then the supernatant was discarded. […] Then, the cells in each well were then rinsed twice with 200 μL of pre-cooled FACS buffer and centrifuged at 500 g at 4° C. for 5 min, and then the supernatant was discarded. Finally, a pre-cooled FACS buffer was added at 200 μL/well to resuspend the cells. Fluorescence signal values were read using a BD FACS CANTOII flow cytometer or an ACEA NovoCyte flow cytometer, and the data were processed and analyzed using FlowJo v10 (FlowJo, LLC) software.

| binding result | Binder |
| --- | --- |
| binds | B1 |
| binds | B2 |
| binds | B3 |
| binds | B4 |
| binds | B5 |

target: T2, human PD-L1 (human, UniProt Q9NZQ7 19-290); assay: flow cytometry, CHO-K1/hPD-L1 cells
T2 construct: whole, on cells; Expressed on CHO-K1/hPD-L1 cells (GenScript, M00543); also called CD274; B7-H1
T2 sequence (Q9NZQ7 19-290): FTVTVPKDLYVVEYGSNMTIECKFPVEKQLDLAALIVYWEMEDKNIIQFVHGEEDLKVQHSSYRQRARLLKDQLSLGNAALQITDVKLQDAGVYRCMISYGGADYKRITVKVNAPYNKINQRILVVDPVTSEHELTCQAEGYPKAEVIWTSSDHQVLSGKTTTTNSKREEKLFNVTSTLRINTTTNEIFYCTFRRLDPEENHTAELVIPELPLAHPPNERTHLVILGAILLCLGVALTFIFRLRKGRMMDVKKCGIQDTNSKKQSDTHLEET

| binding result | Binder |
| --- | --- |
| binds | B1 |
| binds | B2 |

target: T3, human PSMA (human, UniProt Q04609 1-750); assay: flow cytometry, LNCaP cells highly expressing human PSMA
T3 construct: whole, on cells; On LNCaP cells highly expressing human PSMA (Nanjing Cobioer, CBP60364); also called FOLH1; glutamate carboxypeptidase 2
T3 sequence (Q04609 whole entry): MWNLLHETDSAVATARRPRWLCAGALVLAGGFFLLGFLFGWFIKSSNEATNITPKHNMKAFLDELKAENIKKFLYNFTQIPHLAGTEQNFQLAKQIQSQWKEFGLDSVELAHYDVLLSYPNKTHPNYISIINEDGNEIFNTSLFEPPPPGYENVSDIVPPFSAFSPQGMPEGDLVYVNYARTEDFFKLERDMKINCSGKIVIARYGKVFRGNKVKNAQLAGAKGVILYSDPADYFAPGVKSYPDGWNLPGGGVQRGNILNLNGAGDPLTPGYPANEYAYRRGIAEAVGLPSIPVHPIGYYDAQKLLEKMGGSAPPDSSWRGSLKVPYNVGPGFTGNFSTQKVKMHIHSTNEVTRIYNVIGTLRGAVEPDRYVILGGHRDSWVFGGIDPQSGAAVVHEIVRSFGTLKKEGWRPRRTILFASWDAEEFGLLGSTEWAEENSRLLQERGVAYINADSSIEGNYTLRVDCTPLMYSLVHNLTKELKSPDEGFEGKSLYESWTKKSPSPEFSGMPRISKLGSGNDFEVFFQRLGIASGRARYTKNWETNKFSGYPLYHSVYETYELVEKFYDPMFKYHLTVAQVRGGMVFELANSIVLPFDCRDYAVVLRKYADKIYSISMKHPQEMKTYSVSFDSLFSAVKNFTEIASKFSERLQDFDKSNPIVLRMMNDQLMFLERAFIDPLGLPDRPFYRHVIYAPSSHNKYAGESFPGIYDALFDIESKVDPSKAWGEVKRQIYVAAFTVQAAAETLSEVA

| binding result | Binder |
| --- | --- |
| binds | B6 |
| binds | B3 |
| binds | B4 |
| binds | B5 |
